The numbers were not newly measured in patent publication US20050019270A1, “Formulation of powder containing nanoparticles for aerosol delivery to the lungs” (priority 2003, published 2005), which cites them from elsewhere.

The conditions of the data set: spray drying with polysorbate 20 added.

On to “recombinant human growth hormone: Protein in a prior spray drying study with polysorbate 20”, for which the surface aggregation is below 2%.
